Here are results for three substances from article PMC2120686.

Assay [1] addresses titin (rabbit). As to the kind of experiment: light scattering.
Assay [2] deals with dansylated LMM (rabbit). In words: fluorescence polarisation.
Assay [3] has as its target light meromyosin (LMM) (rabbit). In words: electron microscopy.
The target of assay [4] is J peptide (15-kD CNBr fragment of LMM) (rabbit). As to the kind of experiment: ELISA.
For assay [5], the target named is K peptide (30-kD CNBr fragment of LMM) (rabbit). In words: ELISA.
The target in assay [6] is light meromyosin (LMM) (rabbit). As to the kind of experiment: ELISA.
The target in assay [7] is titin (rabbit). As to the kind of experiment: ELISA.

Values joined by “and” are separate entries in the source; they are usually repeats but may differ in a detail not shown here. Identical values can stand only once.

The substance “light meromyosin (LMM) (domain or fragment)” showed a stoichiometry N in assay [1] of 25 to 50.
Consider titin (natural protein), for which the Kd was 0.015 µM in assay [2]; 0.03 µM and 0.02 µM in assay [4]; 0.012 µM in assay [6]. The molecular-binding constant in assay [2] worked out at 400 nM. Besides, in assay [3], the percent of molecules closely associated worked out at 20%. The substance also had a fold lower affinity than the 15-kD peptide in assay [5] of 100 fold.
Consider “J peptide (15-kD CNBr fragment of LMM) (domain or fragment)”, for which the maximum inhibition of titin binding to LMM in assay [7] came out at 60%.
